Positions count from the first letter of the chain named.
T1: human GLP-2 receptor (hGLP2-R) (human, UniProt O95838 1-553)
T1 sequence (looked up): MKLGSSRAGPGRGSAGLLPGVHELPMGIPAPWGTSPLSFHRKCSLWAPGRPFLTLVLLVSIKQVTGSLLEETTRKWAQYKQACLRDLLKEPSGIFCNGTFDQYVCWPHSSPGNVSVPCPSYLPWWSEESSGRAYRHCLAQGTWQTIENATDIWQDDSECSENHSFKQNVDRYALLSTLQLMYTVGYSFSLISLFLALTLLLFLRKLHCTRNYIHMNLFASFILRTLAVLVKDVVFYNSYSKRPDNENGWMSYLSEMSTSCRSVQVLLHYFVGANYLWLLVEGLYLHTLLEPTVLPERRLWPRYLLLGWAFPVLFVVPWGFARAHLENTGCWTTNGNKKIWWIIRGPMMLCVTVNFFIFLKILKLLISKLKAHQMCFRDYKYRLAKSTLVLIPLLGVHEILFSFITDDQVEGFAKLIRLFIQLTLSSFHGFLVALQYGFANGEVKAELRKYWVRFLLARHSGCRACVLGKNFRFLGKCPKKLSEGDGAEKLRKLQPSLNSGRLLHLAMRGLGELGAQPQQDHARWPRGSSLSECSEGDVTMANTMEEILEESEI

B1: Compound 19 (peptide)
peptide: HXEGTFTSELATILDXQAARDFIAWLIQHKITD
HELM: PEPTIDE1{H.[Aib].E.G.T.F.T.S.E.L.A.T.I.L.D.K.Q.A.A.R.D.F.I.A.W.L.I.Q.H.K.I.T.D}|PEPTIDE2{[O=C(O)CCCCCCCCCCCCCCCCC(=O)[*:2]].[gGlu]}$PEPTIDE1,PEPTIDE2,16:R3-2:R2$$$V2.0
SMILES: CC[C@H](C)[C@H](NC(=O)[C@H](Cc1ccccc1)NC(=O)[C@H](CC(=O)O)NC(=O)[C@H](CCCNC(=N)N)NC(=O)[C@H](C)NC(=O)[C@H](C)NC(=O)[C@H](CCC(N)=O)NC(=O)[C@H](CCCCNC(=O)CC[C@H](NC(=O)CCCCCCCCCCCCCCCCC(=O)O)C(=O)O)NC(=O)[C@H](CC(=O)O)NC(=O)[C@H](CC(C)C)NC(=O)[C@@H](NC(=O)[C@@H](NC(=O)[C@H](C)NC(=O)[C@H](CC(C)C)NC(=O)[C@H](CCC(=O)O)NC(=O)[C@H](CO)NC(=O)[C@@H](NC(=O)[C@H](Cc1ccccc1)NC(=O)[C@@H](NC(=O)CNC(=O)[C@H](CCC(=O)O)NC(=O)C(C)(C)NC(=O)[C@@H](N)Cc1c[nH]cn1)[C@@H](C)O)[C@@H](C)O)[C@@H](C)O)[C@@H](C)CC)C(=O)N[C@@H](C)C(=O)N[C@@H](Cc1c[nH]c2ccccc12)C(=O)N[C@@H](CC(C)C)C(=O)N[C@H](C(=O)N[C@@H](CCC(N)=O)C(=O)N[C@@H](Cc1c[nH]cn1)C(=O)N[C@@H](CCCCN)C(=O)N[C@H](C(=O)N[C@H](C(=O)N[C@@H](CC(=O)O)C(=O)O)[C@@H](C)O)[C@@H](C)CC)[C@@H](C)CC
B2: Compound 20 (peptide)
peptide: B1 peptide with T7S, Q28E
HELM: PEPTIDE1{H.[Aib].E.G.T.F.S.S.E.L.A.T.I.L.D.K.Q.A.A.R.D.F.I.A.W.L.I.E.H.K.I.T.D}|PEPTIDE2{[O=C(O)CCCCCCCCCCCCCCCCC(=O)[*:2]].[gGlu]}$PEPTIDE1,PEPTIDE2,16:R3-2:R2$$$V2.0
SMILES: CC[C@H](C)[C@H](NC(=O)[C@H](Cc1ccccc1)NC(=O)[C@H](CC(=O)O)NC(=O)[C@H](CCCNC(=N)N)NC(=O)[C@H](C)NC(=O)[C@H](C)NC(=O)[C@H](CCC(N)=O)NC(=O)[C@H](CCCCNC(=O)CC[C@H](NC(=O)CCCCCCCCCCCCCCCCC(=O)O)C(=O)O)NC(=O)[C@H](CC(=O)O)NC(=O)[C@H](CC(C)C)NC(=O)[C@@H](NC(=O)[C@@H](NC(=O)[C@H](C)NC(=O)[C@H](CC(C)C)NC(=O)[C@H](CCC(=O)O)NC(=O)[C@H](CO)NC(=O)[C@H](CO)NC(=O)[C@H](Cc1ccccc1)NC(=O)[C@@H](NC(=O)CNC(=O)[C@H](CCC(=O)O)NC(=O)C(C)(C)NC(=O)[C@@H](N)Cc1c[nH]cn1)[C@@H](C)O)[C@@H](C)O)[C@@H](C)CC)C(=O)N[C@@H](C)C(=O)N[C@@H](Cc1c[nH]c2ccccc12)C(=O)N[C@@H](CC(C)C)C(=O)N[C@H](C(=O)N[C@@H](CCC(=O)O)C(=O)N[C@@H](Cc1c[nH]cn1)C(=O)N[C@@H](CCCCN)C(=O)N[C@H](C(=O)N[C@H](C(=O)N[C@@H](CC(=O)O)C(=O)O)[C@@H](C)O)[C@@H](C)CC)[C@@H](C)CC
B3: Compound 21 (peptide)
peptide: B1 peptide with T7S, Q28A
HELM: PEPTIDE1{H.[Aib].E.G.T.F.S.S.E.L.A.T.I.L.D.K.Q.A.A.R.D.F.I.A.W.L.I.A.H.K.I.T.D}|PEPTIDE2{[O=C(O)CCCCCCCCCCCCCCCCC(=O)[*:2]].[gGlu]}$PEPTIDE1,PEPTIDE2,16:R3-2:R2$$$V2.0
SMILES: CC[C@H](C)[C@H](NC(=O)[C@H](CC(C)C)NC(=O)[C@H](Cc1c[nH]c2ccccc12)NC(=O)[C@H](C)NC(=O)[C@@H](NC(=O)[C@H](Cc1ccccc1)NC(=O)[C@H](CC(=O)O)NC(=O)[C@H](CCCNC(=N)N)NC(=O)[C@H](C)NC(=O)[C@H](C)NC(=O)[C@H](CCC(N)=O)NC(=O)[C@H](CCCCNC(=O)CC[C@H](NC(=O)CCCCCCCCCCCCCCCCC(=O)O)C(=O)O)NC(=O)[C@H](CC(=O)O)NC(=O)[C@H](CC(C)C)NC(=O)[C@@H](NC(=O)[C@@H](NC(=O)[C@H](C)NC(=O)[C@H](CC(C)C)NC(=O)[C@H](CCC(=O)O)NC(=O)[C@H](CO)NC(=O)[C@H](CO)NC(=O)[C@H](Cc1ccccc1)NC(=O)[C@@H](NC(=O)CNC(=O)[C@H](CCC(=O)O)NC(=O)C(C)(C)NC(=O)[C@@H](N)Cc1c[nH]cn1)[C@@H](C)O)[C@@H](C)O)[C@@H](C)CC)[C@@H](C)CC)C(=O)N[C@@H](C)C(=O)N[C@@H](Cc1c[nH]cn1)C(=O)N[C@@H](CCCCN)C(=O)N[C@H](C(=O)N[C@H](C(=O)N[C@@H](CC(=O)O)C(=O)O)[C@@H](C)O)[C@@H](C)CC
B4: reference compound A (peptide)
peptide: B1 peptide with E3D, T5S, T7S
HELM: PEPTIDE1{H.[Aib].D.G.S.F.S.S.E.L.A.T.I.L.D.K.Q.A.A.R.D.F.I.A.W.L.I.Q.H.K.I.T.D}|PEPTIDE2{[O=C(O)CCCCCCCCCCCCCCCCC(=O)[*:2]].[gGlu]}$PEPTIDE1,PEPTIDE2,16:R3-2:R2$$$V2.0
SMILES: CC[C@H](C)[C@H](NC(=O)[C@H](Cc1ccccc1)NC(=O)[C@H](CC(=O)O)NC(=O)[C@H](CCCNC(=N)N)NC(=O)[C@H](C)NC(=O)[C@H](C)NC(=O)[C@H](CCC(N)=O)NC(=O)[C@H](CCCCNC(=O)CC[C@H](NC(=O)CCCCCCCCCCCCCCCCC(=O)O)C(=O)O)NC(=O)[C@H](CC(=O)O)NC(=O)[C@H](CC(C)C)NC(=O)[C@@H](NC(=O)[C@@H](NC(=O)[C@H](C)NC(=O)[C@H](CC(C)C)NC(=O)[C@H](CCC(=O)O)NC(=O)[C@H](CO)NC(=O)[C@H](CO)NC(=O)[C@H](Cc1ccccc1)NC(=O)[C@H](CO)NC(=O)CNC(=O)[C@H](CC(=O)O)NC(=O)C(C)(C)NC(=O)[C@@H](N)Cc1c[nH]cn1)[C@@H](C)O)[C@@H](C)CC)C(=O)N[C@@H](C)C(=O)N[C@@H](Cc1c[nH]c2ccccc12)C(=O)N[C@@H](CC(C)C)C(=O)N[C@H](C(=O)N[C@@H](CCC(N)=O)C(=O)N[C@@H](Cc1c[nH]cn1)C(=O)N[C@@H](CCCCN)C(=O)N[C@H](C(=O)N[C@H](C(=O)N[C@@H](CC(=O)O)C(=O)O)[C@@H](C)O)[C@@H](C)CC)[C@@H](C)CC
B5: Compound 22 (peptide)
peptide: B1 peptide with T5S, Q28A
HELM: PEPTIDE1{H.[Aib].E.G.S.F.T.S.E.L.A.T.I.L.D.K.Q.A.A.R.D.F.I.A.W.L.I.A.H.K.I.T.D}|PEPTIDE2{[O=C(O)CCCCCCCCCCCCCCCCC(=O)[*:2]].[gGlu]}$PEPTIDE1,PEPTIDE2,16:R3-2:R2$$$V2.0
SMILES: CC[C@H](C)[C@H](NC(=O)[C@H](CC(C)C)NC(=O)[C@H](Cc1c[nH]c2ccccc12)NC(=O)[C@H](C)NC(=O)[C@@H](NC(=O)[C@H](Cc1ccccc1)NC(=O)[C@H](CC(=O)O)NC(=O)[C@H](CCCNC(=N)N)NC(=O)[C@H](C)NC(=O)[C@H](C)NC(=O)[C@H](CCC(N)=O)NC(=O)[C@H](CCCCNC(=O)CC[C@H](NC(=O)CCCCCCCCCCCCCCCCC(=O)O)C(=O)O)NC(=O)[C@H](CC(=O)O)NC(=O)[C@H](CC(C)C)NC(=O)[C@@H](NC(=O)[C@@H](NC(=O)[C@H](C)NC(=O)[C@H](CC(C)C)NC(=O)[C@H](CCC(=O)O)NC(=O)[C@H](CO)NC(=O)[C@@H](NC(=O)[C@H](Cc1ccccc1)NC(=O)[C@H](CO)NC(=O)CNC(=O)[C@H](CCC(=O)O)NC(=O)C(C)(C)NC(=O)[C@@H](N)Cc1c[nH]cn1)[C@@H](C)O)[C@@H](C)O)[C@@H](C)CC)[C@@H](C)CC)C(=O)N[C@@H](C)C(=O)N[C@@H](Cc1c[nH]cn1)C(=O)N[C@@H](CCCCN)C(=O)N[C@H](C(=O)N[C@H](C(=O)N[C@@H](CC(=O)O)C(=O)O)[C@@H](C)O)[C@@H](C)CC
B6: Compound 23 (peptide)
peptide: B1 peptide with Q28A
HELM: PEPTIDE1{H.[Aib].E.G.T.F.T.S.E.L.A.T.I.L.D.K.Q.A.A.R.D.F.I.A.W.L.I.A.H.K.I.T.D}|PEPTIDE2{[O=C(O)CCCCCCCCCCCCCCCCC(=O)[*:2]].[gGlu]}$PEPTIDE1,PEPTIDE2,16:R3-2:R2$$$V2.0
SMILES: CC[C@H](C)[C@H](NC(=O)[C@H](CC(C)C)NC(=O)[C@H](Cc1c[nH]c2ccccc12)NC(=O)[C@H](C)NC(=O)[C@@H](NC(=O)[C@H](Cc1ccccc1)NC(=O)[C@H](CC(=O)O)NC(=O)[C@H](CCCNC(=N)N)NC(=O)[C@H](C)NC(=O)[C@H](C)NC(=O)[C@H](CCC(N)=O)NC(=O)[C@H](CCCCNC(=O)CC[C@H](NC(=O)CCCCCCCCCCCCCCCCC(=O)O)C(=O)O)NC(=O)[C@H](CC(=O)O)NC(=O)[C@H](CC(C)C)NC(=O)[C@@H](NC(=O)[C@@H](NC(=O)[C@H](C)NC(=O)[C@H](CC(C)C)NC(=O)[C@H](CCC(=O)O)NC(=O)[C@H](CO)NC(=O)[C@@H](NC(=O)[C@H](Cc1ccccc1)NC(=O)[C@@H](NC(=O)CNC(=O)[C@H](CCC(=O)O)NC(=O)C(C)(C)NC(=O)[C@@H](N)Cc1c[nH]cn1)[C@@H](C)O)[C@@H](C)O)[C@@H](C)O)[C@@H](C)CC)[C@@H](C)CC)C(=O)N[C@@H](C)C(=O)N[C@@H](Cc1c[nH]cn1)C(=O)N[C@@H](CCCCN)C(=O)N[C@H](C(=O)N[C@H](C(=O)N[C@@H](CC(=O)O)C(=O)O)[C@@H](C)O)[C@@H](C)CC

Each binder was assayed against human glucagon-like peptide 1 receptor (GLP-1 R) (human, UniProt P43220 24-463) (assay: cell-based or functional assay).

Point of comparison: B2, “EC50 GLP-1 (nM); cAMP response” value 0.55 nM. Against it:
- B1 — 8.3-fold lower, 0.066 nM
- B3 — 3.3-fold higher, 1.8 nM
- B4 — within 1.5-fold, 0.49 nM
- B5 — 2.4-fold lower, 0.23 nM
- B6 — 4.2-fold lower, 0.13 nM

These binders were tested against T1, human GLP-2 receptor (hGLP2-R) (assay: cell-based or functional assay).

Point of comparison: B4, “EC50 GLP-2 (nM); cAMP response” value 0.083 nM. Against it:
- B1 — 2.8-fold higher, 0.23 nM
- B2 — 4.5-fold higher, 0.37 nM
- B3 — 3.3-fold higher, 0.27 nM
- B5 — 2.4-fold higher, 0.2 nM
- B6 — 2.9-fold higher, 0.24 nM

Source: patent US20200297818A1 (ZEALAND PHARMA A S, published 2020)
